Article PMC12149299
Read-outs that look alike come from different tables or passages of the source.

B1: FD22 (protein)
chain 1: QVQLSQSGGGAVQPGKSLTLSCRAYGFHLFSYVVVWVRQTPQNGLEWVAGAASGGWPQEFMNSVRGRFSISRDDYTVSLQMNALRVDDSGLYFCAQERGLHRLDGAVKFGRWFRAWGQGSQVVVTS
chain 2: QSALTQPASVSGSPGQSITLSCTGADNSVSWYQVVPGRAPKLLIFEVNVRPSEVSDRFSGSKSGDTASLTISRLQIEDESDYYCVTRRGDVTYLFGSGTRVSVL
B2: VRC01 (protein)
chain 1: QVQLVQSGGQMKKPGESMRISCRASGYEFIDCTLNWIRLAPGKRPEWMGWLKPRGGAVNYARPLQGRVTMTRDVYSDTAFLELRSLTVDDTAVYFCTRGKNCDYNWDFEHWGRGTPVIVSS
chain 2: EIVLTQSPGTLSLSPGETAIISCRTSQYGSLAWYQQRPGQAPRLVIYSGSTRAAGIPDRFSGSRWGPDYNLTISNLESGDFGVYYCQQYEFFGQGTKVQVD

Molecular target: HIV-1 gp120 protein from the BaL.01 strain (HIV-1)
Assay: BLI

Binder	Kd (biotin (EZ-Link NHS-LC-Biotin) in the competition ELISA only | biotin (EZ-Link NHS-LC-Biotin) in the competition ELISA only) [µM]	Kd [µM]
B1	0.00888	–
B2	–	0.0251
